For 2 molecules, percent co-depleted results are on record in paper PMC2847587 (Molecular cell, 2010).

First the molecules themselves.
B1: FAAP24 (natural protein, human (endogenous in HeLa), UniProt Q9BTP7 1-215, looked up)
chain: MEKNPPDDTGPVHVPLGHIVANEKWRGSQLAQEMQGKIKLIFEDGLTPDFYLSNRCCILYVTEADLVAGNGYRKRLVRVRNSNNLKGIVVVEKTRMSEQYFPALQKFTVLDLGMVLLPVASQMEASCLVIQLVQEQTKEPSKNPLLGKKRALLLSEPSLLRTVQQIPGVGKVKAPLLLQKFPSIQQLSNASIGELEQVVGQAVAQQIHAFFTQPR
B2: FANCA (natural protein, human (endogenous in HeLa), UniProt O15360 1-1455, looked up)
chain: MSDSWVPNSASGQDPGGRRRAWAELLAGRVKREKYNPERAQKLKESAVRLLRSHQDLNALLLEVEGPLCKKLSLSKVIDCDSSEAYANHSSSFIGSALQDQASRLGVPVGILSAGMVASSVGQICTAPAETSHPVLLTVEQRKKLSSLLEFAQYLLAHSMFSRLSFCQELWKIQSSLLLEAVWHLHVQGIVSLQELLESHPDMHAVGSWLFRNLCCLCEQMEASCQHADVARAMLSDFVQMFVLRGFQKNSDLRRTVEPEKMPQVTVDVLQRMLIFALDALAAGVQEESSTHKIVRCWFGVFSGHTLGSVISTDPLKRFFSHTLTQILTHSPVLKASDAVQMQREWSFARTHPLLTSLYRRLFVMLSAEELVGHLQEVLETQEVHWQRVLSFVSALVVCFPEAQQLLEDWVARLMAQAFESCQLDSMVTAFLVVRQAALEGPSAFLSYADWFKASFGSTRGYHGCSKKALVFLFTFLSELVPFESPRYLQVHILHPPLVPGKYRSLLTDYISLAKTRLADLKVSIENMGLYEDLSSAGDITEPHSQALQDVEKAIMVFEHTGNIPVTVMEASIFRRPYYVSHFLPALLTPRVLPKVPDSRVAFIESLKRADKIPPSLYSTYCQACSAAEEKPEDAALGVRAEPNSAEEPLGQLTAALGELRASMTDPSQRDVISAQVAVISERLRAVLGHNEDDSSVEISKIQLSINTPRLEPREHMAVDLLLTSFCQNLMAASSVAPPERQGPWAALFVRTMCGRVLPAVLTRLCQLLRHQGPSLSAPHVLGLAALAVHLGESRSALPEVDVGPPAPGAGLPVPALFDSLLTCRTRDSLFFCLKFCTAAISYSLCKFSSQSRDTLCSCLSPGLIKKFQFLMFRLFSEARQPLSEEDVASLSWRPLHLPSADWQRAALSLWTHRTFREVLKEEDVHLTYQDWLHLELEIQPEADALSDTERQDFHQWAIHEHFLPESSASGGCDGDLQAACTILVNALMDFHQSSRSYDHSENSDLVFGGRTGNEDIISRLQEMVADLELQQDLIVPLGHTPSQEHFLFEIFRRRLQALTSGWSVAASLQRQRELLMYKRILLRLPSSVLCGSSFQAEQPITARCEQFFHLVNSEMRNFCSHGGALTQDITAHFFRGLLNACLRSRDPSLMVDFILAKCQTKCPLILTSALVWWPSLEPVLLCRWRRHCQSPLPRELQKLQEGRQFASDFLSPEAASPAPNPDWLSAAALHFAIQQVREENIRKQLKKLDCEREELLVFLFFFSLMGLLSSHLTSNSTTDLPKAFHVCAAILECLEKRKISWLALFQLTESDLRLGRLLLRVAPDQHTRLLPFAFYSLLSYFHEDAAIREEAFLHVAVDMYLKLVQLFVAGDTSTVSPPAGRSLELKGQGNPVELITKARLFLLQLIPRCPKKSFSHVAELLADRGDCDPEVSAALQSRQQAAPDADLSQEPHLF

Some results are limits rather than exact numbers.

Common to all, as to test: immunodepletion
The target of the test “FANCA” is B2.
The test “FAAP24” addresses B1.
Test [1] has as its target MHF1 (FANCM-associated Histone Fold protein 1) (human (endogenous in HeLa), UniProt Q8N2Z9-1 1-138).
Test [2] concerns the target MHF2 (FANCM-associated Histone Fold protein 2) (human (endogenous in HeLa), UniProt A8MT69 1-81).

Sequence of MHF1 (FANCM-associated Histone Fold protein 1) (Q8N2Z9 whole entry): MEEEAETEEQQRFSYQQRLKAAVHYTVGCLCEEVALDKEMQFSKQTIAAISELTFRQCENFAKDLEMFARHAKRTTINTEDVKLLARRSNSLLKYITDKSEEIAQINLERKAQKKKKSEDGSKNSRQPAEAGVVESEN
Sequence of MHF2 (FANCM-associated Histone Fold protein 2) (A8MT69 whole entry): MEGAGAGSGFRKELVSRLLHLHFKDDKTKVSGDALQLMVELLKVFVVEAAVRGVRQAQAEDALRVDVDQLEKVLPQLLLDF

In turn, B1 showed a percent co-depleted with FANCA of under 30%.

For the molecule B2, the percent co-depleted (with FAAP24; in test [1]; in test [2]) was under 25% each time.
